The supplement of paper PMC7877785
± gives the uncertainty stated by the source.

Experiment: self-splicing fitness, log relative to wild type (ln ratio); higher = more splicing; Tetrahymena group I intron in knt gene, E. coli kanamycin selection, DiMSum; sequences stand for … in CUCUCU…GGAGGGAAAAGUUAUCAGGCAUGCACCUGGUAGCUAGUCUUUAAACCAAUAGAUUGCAUCGGUUUAAAAGGCAAGACCGUCAAAUUGCGGGAAAGGGGUCAACAGCCGUUCAGUACCAAGUCUCAGGGGAAACUUUGAGAUGGCCUUGCAAAGGGUAUGGUAAUAAGCUGACGGACAUGGUCCUAACCACGCAGCCAAGUCCUAAGUCAACAGAUCUUCUGUUGAUAUGGAUGCAGUUCACAGACUAAAUGUCGGUCGGGGAAGAUGUAUUCUUCUCAUAAGAUAUAGUCGGACCUCUCCUUAAUGGGAGCUAGCGGAUGAAGUGAUGCAACACUGGAGCCGCUGGGAACUAAUUUGUAUGCGAAAGUAUAUUGAUUAGUUUUGGAGUACUCGUGGUCG
Procedure, shortened: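 Pooled colonies went to amplicon sequencing on an Illumina HiSeq 2500 after six replicate transformations. The plates were LB agar with 100 μg/mL carbenicillin, 50 μM IPTG and 0.2% rhamnose, with or without 25 μg/mL kanamycin, incubated overnight at 37°C or 30°C. The E. coli BL21(DE3) library had all eight P1ex-region intron nucleotides randomised, the intron placed in the knt kanamycin-resistance gene on pET-22b(+). DiMSum fitness is the error-weighted combination of replicate fold changes, kanamycin against none, normalised to wild type.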

| Sequence | self-splicing fitness (ln) (30 °C) | self-splicing fitness (ln) (37 °C) |
| --- | --- | --- |
| UCGUAGCAAUAUUACGGUGC | -3.62 ± 0.33 | -3.15 ± 0.47 |
| CGGGAGCAAUAUUACGAACA |  | -1.37 ± 0.22 |
| AAGCAGCAAUAUUACGCGGG | -1.43 ± 0.078 | -1.27 ± 0.1 |
| ACAAAGCAAUAUUACGUCCA | -1.62 ± 0.097 | -0.403 ± 0.1 |
| UCGUAGCAAUAUUACGGCGA | -1.85 ± 0.37 | -0.98 ± 0.2 |
| AUUAAGCAAUAUUACGCCUC | -2.77 ± 0.18 | -1.42 ± 0.16 |
| GCGCAGCAAUAUUACGGACC | -1.03 ± 0.24 | 0.344 ± 0.38 |
| UGAGAGCAAUAUUACGAGGC | -2.98 ± 0.22 | -2.17 ± 0.33 |
| GUACAGCAAUAUUACGGAGG | -3.92 ± 0.34 | -2.92 ± 0.44 |
| GAUUAGCAAUAUUACGGGAC | -2.53 ± 0.18 | -1.53 ± 0.14 |
| UGUCAGCAAUAUUACGAUUG | -0.341 ± 0.076 | 0.249 ± 0.12 |
| GGCCAGCAAUAUUACGUCUG | -3.07 ± 0.24 | -2.93 ± 0.32 |
| UCACAGCAAUAUUACGUACC | -2.45 ± 0.23 | -2.37 ± 0.23 |
| CAUAAGCAAUAUUACGUGGA | -3.5 ± 0.22 | -2.53 ± 0.21 |
| UAAGAGCAAUAUUACGGACA | -1.78 ± 0.25 | -2.31 ± 0.35 |
| GAGCAGCAAUAUUACGCACA | -0.256 ± 0.21 | -0.415 ± 0.14 |
| UCUCAGCAAUAUUACGCUAU | -3.62 ± 0.43 | -2.37 ± 0.23 |
| AAUUAGCAAUAUUACGUCGG | -2.72 ± 0.19 | -1.66 ± 0.21 |
| CACUAGCAAUAUUACGUCUG | -0.516 ± 0.058 | 0.214 ± 0.074 |
| UGAGAGCAAUAUUACGUUAU | -2.88 ± 0.23 | -2.89 ± 0.43 |

| Sequence | self-splicing fitness (ln) (30 °C) | self-splicing fitness (ln) (37 °C) |
| --- | --- | --- |
| CUUGAGCAAUAUUACGCGAA | -3.53 ± 0.4 |  |
| CUCAAGCAAUAUUACGCAUC | -3.63 ± 0.23 | -2.3 ± 0.25 |
| GAAUAGCAAUAUUACGCAUA | -2.62 ± 0.29 | -1.08 ± 0.17 |
| GCAGAGCAAUAUUACGAAUG | -2.71 ± 0.35 |  |
| AAUCAGCAAUAUUACGAUUC | -2.99 ± 0.2 | -3.73 ± 0.39 |
| ACGCAGCAAUAUUACGCUGC | -3.38 ± 0.43 | -3.02 ± 0.29 |
| CCGGAGCAAUAUUACGGGCG | -1.36 ± 0.11 | -1 ± 0.15 |
| AAGGAGCAAUAUUACGGUUG | -2.52 ± 0.17 | -3.27 ± 0.32 |
| ACGAAGCAAUAUUACGAUAG | -3.09 ± 0.23 | -1.87 ± 0.21 |
| GCAGAGCAAUAUUACGCCAG | -2.36 ± 0.48 |  |
| CAAUAGCAAUAUUACGCAAU | -3.23 ± 0.34 | -2.09 ± 0.28 |
| GCCUAGCAAUAUUACGGUUU | -0.729 ± 0.05 | -0.56 ± 0.062 |
| CGAUAGCAAUAUUACGAUAA | -3.37 ± 0.27 | -2.2 ± 0.35 |
| GUUAAGCAAUAUUACGGACU | -2.88 ± 0.2 | -1.8 ± 0.2 |
| CGGAAGCAAUAUUACGAUCA | -0.698 ± 0.11 | -0.039 ± 0.1 |
| AAGGAGCAAUAUUACGCAUA | -2.45 ± 0.49 |  |
| ACUCAGCAAUAUUACGGCUG | -2.36 ± 0.21 | -2.86 ± 0.29 |
| GCCCAGCAAUAUUACGAGUA | -0.468 ± 0.14 | -0.671 ± 0.1 |
| CACUAGCAAUAUUACGGCAU | -4.16 ± 0.19 | -1.55 ± 0.14 |
| CGCAAGCAAUAUUACGUCAU | -4.26 ± 0.24 | -2.4 ± 0.17 |
